Experimental data reported in publication PMC9019248.

Target: calmodulin-Sepharose, P0DP23
Assay: pull-down
Settings: remark: other sources report otherwise

Row | percent reduction of binding with EGTA against Ca2+ | fold more bound with Ca2+ than with EGTA | Binder
1 | 70.9% |  | purified recombinant human LATS1 (active kinase), O95835 1-1130 (enzyme) MKRSEKPEGYRQMRPKTFPASNYTVSSRQMLQEIRESLRNLSKPSDAAKAEHNMSKMSTEDPRQVRNPPKFGTHHKALQEIRNSLLPFANETNSSRSTSEVNPQMLQDLQAAGFDEDMVIQALQKTNNRSIEAAIEFISKMSYQDPRREQMAAAAARPINASMKPGNVQQSVNRKQSWKGSKESLVPQRHGPPLGESVAYHSESPNSQTDVGRPLSGSGISAFVQAHPSNGQRVNPPPPPQVRSVTPPPPPRGQTPPPRGTTPPPPSWEPNSQTKRYSGNMEYVISRISPVPPGAWQEGYPPPPLNTSPMNPPNQGQRGISSVPVGRQPIIMQSSSKFNFPSGRPGMQNGTGQTDFMIHQNVVPAGTVNRQPPPPYPLTAANGQSPSALQTGGSAAPSSYTNGSIPQSMMVPNRNSHNMELYNISVPGLQTNWPQSSSAPAQSSPSSGHEIPTWQPNIPVRSNSFNNPLGNRASHSANSQPSATTVTAITPAPIQQPVKSMRVLKPELQTALAPTHPSWIPQPIQTVQPSPFPEGTASNVTVMPPVAEAPNYQGPPPPYPKHLLHQNPSVPPYESISKPSKEDQPSLPKEDESEKSYENVDSGDKEKKQITTSPITVRKNKKDEERRESRIQSYSPQAFKFFMEQHVENVLKSHQQRLHRKKQLENEMMRVGLSQDAQDQMRKMLCQKESNYIRLKRAKMDKSMFVKIKTLGIGAFGEVCLARKVDTKALYATKTLRKKDVLLRNQVAHVKAERDILAEADNEWVVRLYYSFQDKDNLYFVMDYIPGGDMMSLLIRMGIFPESLARFYIAELTCAVESVHKMGFIHRDIKPDNILIDRDGHIKLTDFGLCTGFRWTHDSKYYQSGDHPRQDSMDFSNEWGDPSSCRCGDRLKPLERRAARQHQRCLAHSLVGTPNYIAPEVLLRTGYTQLCDWWSVGVILFEMLVGQPPFLAQTPLETQMKVINWQTSLHIPPQAKLSPEASDLIIKLCRGPEDRLGKNGADEIKAHPFFKTIDFSSDLRQQSASYIPKITHPTDTSNFDPVDPDKLWSDDNEEENVNDTLNGWYKNGKHPEHAFYEFTFRRFFDDNGYPYNYPKPIEYEYINSQGSEQQSDEDDQNTGSEIKNRDLVYV
2 |  | 11 fold | large tumor suppressor 1 kinase (endogenous, HEK293 cells), O95835 1-1130 (enzyme) MKRSEKPEGYRQMRPKTFPASNYTVSSRQMLQEIRESLRNLSKPSDAAKAEHNMSKMSTEDPRQVRNPPKFGTHHKALQEIRNSLLPFANETNSSRSTSEVNPQMLQDLQAAGFDEDMVIQALQKTNNRSIEAAIEFISKMSYQDPRREQMAAAAARPINASMKPGNVQQSVNRKQSWKGSKESLVPQRHGPPLGESVAYHSESPNSQTDVGRPLSGSGISAFVQAHPSNGQRVNPPPPPQVRSVTPPPPPRGQTPPPRGTTPPPPSWEPNSQTKRYSGNMEYVISRISPVPPGAWQEGYPPPPLNTSPMNPPNQGQRGISSVPVGRQPIIMQSSSKFNFPSGRPGMQNGTGQTDFMIHQNVVPAGTVNRQPPPPYPLTAANGQSPSALQTGGSAAPSSYTNGSIPQSMMVPNRNSHNMELYNISVPGLQTNWPQSSSAPAQSSPSSGHEIPTWQPNIPVRSNSFNNPLGNRASHSANSQPSATTVTAITPAPIQQPVKSMRVLKPELQTALAPTHPSWIPQPIQTVQPSPFPEGTASNVTVMPPVAEAPNYQGPPPPYPKHLLHQNPSVPPYESISKPSKEDQPSLPKEDESEKSYENVDSGDKEKKQITTSPITVRKNKKDEERRESRIQSYSPQAFKFFMEQHVENVLKSHQQRLHRKKQLENEMMRVGLSQDAQDQMRKMLCQKESNYIRLKRAKMDKSMFVKIKTLGIGAFGEVCLARKVDTKALYATKTLRKKDVLLRNQVAHVKAERDILAEADNEWVVRLYYSFQDKDNLYFVMDYIPGGDMMSLLIRMGIFPESLARFYIAELTCAVESVHKMGFIHRDIKPDNILIDRDGHIKLTDFGLCTGFRWTHDSKYYQSGDHPRQDSMDFSNEWGDPSSCRCGDRLKPLERRAARQHQRCLAHSLVGTPNYIAPEVLLRTGYTQLCDWWSVGVILFEMLVGQPPFLAQTPLETQMKVINWQTSLHIPPQAKLSPEASDLIIKLCRGPEDRLGKNGADEIKAHPFFKTIDFSSDLRQQSASYIPKITHPTDTSNFDPVDPDKLWSDDNEEENVNDTLNGWYKNGKHPEHAFYEFTFRRFFDDNGYPYNYPKPIEYEYINSQGSEQQSDEDDQNTGSEIKNRDLVYV
